The values below come from patent US11604185B2 (priority 2007, dated 2023).

In assay [1] the test system is BoNT/A holotoxin, complex or the non-toxic LCs. It counts as biochemical, Clostridium botulinum.
Assay [2] deals with T1, BoNT/A complex (Clostridium botulinum, UniProt P0DPI1). It counts as biochemical.
For another assay, the target named is BoNT/A light chain (Clostridium botulinum, UniProt P0DPI0).
The target in assay [3] is T1, BoNT/A complex.
The target of assay [4] is T2, Trypsin (Sus scrofa, UniProt P00761). It counts as biochemical.
In a further assay the target is Thermolysin (Bacillus thermoproteolyticus, UniProt P00800).
A further assay relates to BoNT/A subtypes A1 to A5. The assay is classed as biochemical, Clostridium botulinum.
Assay [5] deals with T2, Trypsin. It counts as biochemical. The source holds these as a separate data set.
The next assay concerns the target Proteinase K (Parengyodontium album, UniProt P06873). The assay is classed as biochemical.
For another assay, the target named is BoNT/B (Clostridium botulinum, UniProt P10844).

Where no end group is shown, it is not given here. [ ]: non-standard residue; d: D form. The star is where a group is joined. 5FAM = O=C1OC2(c3ccc(O)cc3Oc3cc(O)ccc32)c2ccc(C(=O)*)cc21; Dabcyl = CN(C)c1ccc(N=Nc2ccc(C(=O)*)cc2)cc1; Nle = CCCC[C@H](N)C(=O)O

Sequence of BoNT/A light chain (P0DPI0 2-448 limits assumed): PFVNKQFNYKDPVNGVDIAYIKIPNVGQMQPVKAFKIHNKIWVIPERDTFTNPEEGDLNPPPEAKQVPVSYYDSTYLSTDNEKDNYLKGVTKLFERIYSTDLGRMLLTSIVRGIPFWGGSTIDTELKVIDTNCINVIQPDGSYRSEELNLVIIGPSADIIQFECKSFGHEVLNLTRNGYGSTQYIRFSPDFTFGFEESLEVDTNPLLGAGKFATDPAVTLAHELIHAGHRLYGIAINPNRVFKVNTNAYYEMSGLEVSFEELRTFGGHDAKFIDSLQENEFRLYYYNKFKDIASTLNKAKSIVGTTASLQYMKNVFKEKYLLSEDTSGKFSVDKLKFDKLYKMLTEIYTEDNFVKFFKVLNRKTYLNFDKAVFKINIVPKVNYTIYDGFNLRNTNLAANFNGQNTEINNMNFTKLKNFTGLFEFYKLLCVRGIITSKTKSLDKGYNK

Consider “5FAM-KIDEANQRATK(Dabcyl)[Nle]-NH2 [SEQ ID NO: 14]”, for which the “cleavable by BoNT/A holotoxin, complex or non-toxic LCs alone” value (shortened to “cleavable … complex or non-toxic LCs alone”) in [1] is “can be cleaved”.

As to `c1ccc(CN(CCN(Cc2ccccn2)Cc2ccccn2)Cc2ccccn2)nc1` [TPEN, N,N,N′,N′-Tetrakis (2-pyridylmethyl) ethylenediamine, reference compound], on BoNT/A complex [2], the “effect on BoNT metalloprotease activity” value is “suppressed BoNT metalloprotease activity”.

Regarding “Fam-K[5-Fam]IDEANQRATK[DABCYL]Nle-amide [SEQ ID NO: 13]”, the “cleavable … complex or non-toxic LCs alone” value in assay [1] is recorded as “can be cleaved”.

“K(5FAM)IDEANQRATK(Dabcyl)[Nle]-NH2 [#201]”: the “cleavable … complex or non-toxic LCs alone” value in assay [1] is recorded as “can be cleaved”.

In the case of “K[5FAM]-IDEANQRATK[DABCYL]-Hex-CONH2 [#204]”, the “cleavage in microcolumn ALISSA” value at BoNT/A light chain is recorded as “does not cleave the control peptide”.

As to “[4-Mu]TRIDEANQRATK[DABCYL] ({4‑Mu}-TRIDEANQRATK; not fully specified (residue 12); also: DABCYL label at C-terminal K, side chain or terminus not clear) [#111]”, in the assay with BoNT/A complex [3], the “cleavage by BoNT/A complex” value is “not by BoNT/A complex”. Also, the cleavage by trypsin entry with Trypsin [4] was “cleaved by trypsin”.

Consider “[4-Mu]TRIDEANQRATK[DABCYL]-Hex ({4‑Mu}-TRIDEANQRATK; not fully specified (residue 12, C-terminus); also: DABCYL label and hexyl (-Hex) at C-terminal K, placement not clear) [#113]”, for which the “cleavage by BoNT/A complex” value with BoNT/A complex [3] is “not by BoNT/A complex”. Further, the Km with Thermolysin was determined as 6.45 ± 0.8 µM; with Trypsin [5], 13.3 ± 2.7 µM; in the assay with Proteinase K, 4.87 ± 0.96 µM. Besides, the values for the kcat with Thermolysin, in the assay with Trypsin [5] and with Proteinase K were 14.66 ± 0.71 s⁻¹, 83.90 ± 8.35 s⁻¹ and 30.64 ± 2.17 s⁻¹, respectively. The “cleaved by BoNT/A subtypes (recombinant LCs)” value with BoNT/A subtypes A1 to A5 is recorded as “None”. Besides, in the assay with Trypsin [4], the cleavage by trypsin result was “cleaved by trypsin”.

For “[5-Fam]TRIDEANQRATK[DABCYL] (5FAM-TRIDEANQRATK; not fully specified (residue 12); also: DABCYL label at C-terminal K, side chain or terminus not clear) [#110]”, the “cleavage by BoNT/A complex” value with BoNT/A complex [3] is “not by BoNT/A complex”. For the same compound, in the assay with Trypsin [4], the cleavage by trypsin entry is “cleaved by trypsin”.

Turning to “[5-Fam]TRIDEANQRATK[DABCYL]-Hex (5FAM-TRIDEANQRATK; not fully specified (residue 12, C-terminus); also: DABCYL label and hexyl (-Hex) at C-terminal K, placement not clear) [#112]”, in the assay with BoNT/A complex [3], the “cleavage by BoNT/A complex” value is on record as “not by BoNT/A complex” and the “cleavage by BoNT/A serotype” value is “not cleaved”. Further, the “cleavage upon addition of increasing concentrations of BoNT/A complex” value in the assay with BoNT/A complex [2] is “only little cleavage”. In addition, in the assay with Thermolysin, the Km turned out to be 3.58 ± 0.76 µM and the kcat came to 24.26 ± 1.72 s⁻¹. Moreover, the “cleaved by BoNT/A subtypes (recombinant LCs)” value in the assay with BoNT/A subtypes A1 to A5 is given as “None”. Moreover, the “cleavage by BoNT/B serotype” value with BoNT/B is “not cleaved”. Further, in the assay with Trypsin [5], the Km worked out at 3.75 ± 0.79 µM and the kcat turned out to be 58.72 ± 4.17 s⁻¹. In the assay with Trypsin [4], the cleavage by trypsin entry is recorded as “cleaved by trypsin”. In addition, in the assay with Proteinase K, the Km came out at 3.37 ± 0.67 µM and the turnover number (kcat) was 50.73 ± 3.28 s⁻¹.

Usually Km stands for the substrate concentration at which the rate is half of its maximum. A word on the kcat: it is the maximal rate divided by the concentration of active sites.
